According to patent US20230340152A1 (published 2023):

What was measured:
[1] = molecular target: T1, Murine CD73 on cells (4T1, Jurkat mCD73 knock-in) (murine, UniProt Q61503 29-551); test: flow cytometry, Jurkat (mCD73 knock-in) / Jurkat
T1 construct: whole, on cells; also called 4T1 (murine)
T1 sequence (looked up): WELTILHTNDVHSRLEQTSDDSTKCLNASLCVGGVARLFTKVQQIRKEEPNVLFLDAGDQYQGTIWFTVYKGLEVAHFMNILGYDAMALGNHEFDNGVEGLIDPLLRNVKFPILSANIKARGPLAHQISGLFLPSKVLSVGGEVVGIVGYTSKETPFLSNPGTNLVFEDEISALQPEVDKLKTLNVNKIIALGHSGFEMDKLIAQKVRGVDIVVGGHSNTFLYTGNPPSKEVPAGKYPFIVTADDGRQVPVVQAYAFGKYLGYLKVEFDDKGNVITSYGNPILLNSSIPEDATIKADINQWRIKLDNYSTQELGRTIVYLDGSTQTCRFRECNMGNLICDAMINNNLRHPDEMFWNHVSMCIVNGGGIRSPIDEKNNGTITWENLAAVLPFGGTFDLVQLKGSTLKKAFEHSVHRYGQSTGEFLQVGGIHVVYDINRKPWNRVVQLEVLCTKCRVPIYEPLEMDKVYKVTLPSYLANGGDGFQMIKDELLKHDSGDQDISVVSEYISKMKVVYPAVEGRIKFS

KO_Cterm CD73 chimera = molecular target: T2, KO_Cterm CD73 chimera (human; chicken); test: SPR (ProteOn), CD73 variant immobilized on HTG chip
T2 construct: also called C-terminal domain-swapped CD73
T2 chain: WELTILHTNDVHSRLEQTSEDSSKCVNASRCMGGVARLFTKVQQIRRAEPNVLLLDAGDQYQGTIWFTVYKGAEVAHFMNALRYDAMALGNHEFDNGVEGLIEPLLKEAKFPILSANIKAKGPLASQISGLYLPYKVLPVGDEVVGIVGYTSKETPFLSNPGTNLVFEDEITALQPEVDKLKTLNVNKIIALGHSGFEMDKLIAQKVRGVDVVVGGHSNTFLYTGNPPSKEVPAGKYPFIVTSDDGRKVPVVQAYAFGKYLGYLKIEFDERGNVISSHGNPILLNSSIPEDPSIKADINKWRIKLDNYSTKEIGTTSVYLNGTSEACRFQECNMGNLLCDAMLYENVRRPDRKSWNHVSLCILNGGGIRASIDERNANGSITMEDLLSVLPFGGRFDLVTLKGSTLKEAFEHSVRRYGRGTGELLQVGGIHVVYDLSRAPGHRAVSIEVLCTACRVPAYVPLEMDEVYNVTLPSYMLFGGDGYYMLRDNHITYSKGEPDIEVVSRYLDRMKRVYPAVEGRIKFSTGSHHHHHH
Procedure: Binding of MEDI9447 to wild-type and mutant CD73 proteins was measured by surface plasmon resonance (SPR) using a ProteOn instrument (BioRad). CD73 crude cell supernatant protein samples were diluted to 3 µg/ml in PBS, 0.005% Tween-20, pH 7.4 (BioRad) and immobilized to ~400 RU on a HTG tris-NTA sensor chip (BioRad) pre-activated with 10 mM NiSO₄, 10 mM MES, pH 6.0 (BioRad). An equivalently diluted crude cell supernatant sample from non-transfected cells was included as a reference channel control. Sensorgrams were recorded by flowing two-fold dilutions of MEDI9447 prepared in PBS, 0.005% Tween-20, pH 7.4, ranging from 5 nM to 0.31 nM. […] Antibody binding was measured at a flow rate of 100 µL/min with a 3 min association phase and 20 min dissociation phase. The sensor chip surface was regenerated between each run by an 800 s injection of 300 mM EDTA, pH 8.5 (BioRad) at a flow rate of 30 µL/min. Binding kinetics were analyzed using the ProteOn data analysis software. Double referencing was performed and, unless noted otherwise, a 1:1 Langmuir binding model was utilized to fit the data. Some CD73 variants containing mutations within the amino acid region 171-188 fit poorly to a 1:1 model (i.e., Chi² values >10% of Rmax). Where noted, these variants were fit with a heterogenous antigen (2:1) model. […] Due to the assay format (antigen immobilized) and the dimeric state of CD73, KD values may be exaggerated due to avidity effects. However, it is not anticipated that this impacts ranking of MEDI9447 binding to the different CD73 variants.

B1: MEDI9447 (antibody, human IgG1, lambda, V domains shown)
VH: EVQLLESGGGLVQPGGSLRLSCAASGFTFSSYAYSWVRQAPGKGLEWVSAISGSGGRTYYADSVKGRFTISRDNSKNTLYLQMNSLRAEDTAVYYCARLGYGRVDEWGRGTLVTVSS
VL: QSVLTQPPSASGTPGQRVTISCSGSLSNIGRNPVNWYQQLPGTAPKLLIYLDNLRLSGVPDRFSGSKSGTSASLAISGLQSEDEADYYCATWDDSHPGWTFGGGTKLTVLG
notes: Human IgG1-TM (L234F, L235E, P331S), lambda light chain; also called clone 10.3 antibody; 73combo3
In the case of B1, the “Mean Fluorescence Intensity Ratio (MFIR)” value [1] is reported as 57.1, the Kd (KO_Cterm CD73 chimera) is reported as 1.7 pM and the koff (KO_Cterm CD73 chimera) is reported as 8.1e-06 s⁻¹. It also gave a kon (KO_Cterm CD73 chimera) of 4.75e+06 M⁻¹ s⁻¹.
